Assay results published in US20200149062.

Legend:
[1] = test system: WT-TSC2-FLAG
[2] = test system: TSC2-FLAG SA (S1365A)

Chain of ERK2 (P28482 2-360): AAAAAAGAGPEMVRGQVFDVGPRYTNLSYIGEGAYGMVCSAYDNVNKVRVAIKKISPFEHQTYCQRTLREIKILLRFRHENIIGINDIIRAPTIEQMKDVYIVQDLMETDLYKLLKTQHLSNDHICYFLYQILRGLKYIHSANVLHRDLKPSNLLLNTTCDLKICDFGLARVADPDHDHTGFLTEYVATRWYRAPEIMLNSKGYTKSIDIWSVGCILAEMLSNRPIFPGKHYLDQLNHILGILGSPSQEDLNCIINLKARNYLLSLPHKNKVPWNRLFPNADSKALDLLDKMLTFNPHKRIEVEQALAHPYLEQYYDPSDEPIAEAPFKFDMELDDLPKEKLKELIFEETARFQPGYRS

Question: ERK2 was tested. Which “TSC2 radiolabeling with [gamma-33P]-ATP (in vitro kinase assay on FLAG-immune-precipitate)” value [1] did it give?
Answer: ERK2-TSC2 phosphorylation served as a positive control

Question: For modified PKG (M438G), which “thiophosphate ester labeling of TSC2” value [2] is on record?
Answer: both radioactive or thiophosphate ester labeling of TSC2 was also seen when SA TSC2 was used

Question: Which “radioactive labeling of TSC2 ([gamma-33P]-ATP, autoradiography)” value [2] does the source give for recombinant PKG (purified active PKG) here?
Answer: both radioactive or thiophosphate ester labeling of TSC2 was also seen when SA TSC2 was used
